± gives the uncertainty stated by the source.

Consider 77 sequences from the supplement of paper PMC7877785.

A short description of the series: self-splicing fitness, log relative to wild type (ln ratio); higher = more splicing; Tetrahymena group I intron in knt gene, E. coli kanamycin selection, DiMSum; sequences stand for … in CUCUCU…GGAGGGAAAAGUUAUCAGGCAUGCACCUGGUAGCUAGUCUUUAAACCAAUAGAUUGCAUCGGUUUAAAAGGCAAGACCGUCAAAUUGCGGGAAAGGGGUCAACAGCCGUUCAGUACCAAGUCUCAGGGGAAACUUUGAGAUGGCCUUGCAAAGGGUAUGGUAAUAAGCUGACGGACAUGGUCCUAACCACGCAGCCAAGUCCUAAGUCAACAGAUCUUCUGUUGAUAUGGAUGCAGUUCACAGACUAAAUGUCGGUCGGGGAAGAUGUAUUCUUCUCAUAAGAUAUAGUCGGACCUCUCCUUAAUGGGAGCUAGCGGAUGAAGUGAUGCAACACUGGAGCCGCUGGGAACUAAUUUGUAUGCGAAAGUAUAUUGAUUAGUUUUGGAGUACUCGUGGUCG
In outline: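 Six replicate transformations of E. coli BL21(DE3) with a pET-22b(+) library were grown overnight at 37°C or 30°C. The library randomised all eight P1ex-region intron nucleotides, the intron lying in the knt kanamycin-resistance gene, and plates were LB agar with or without 25 μg/mL kanamycin plus 100 μg/mL carbenicillin, 50 μM IPTG and 0.2% rhamnose. Pooled colonies were amplicon-sequenced on an Illumina HiSeq 2500, and fitness is the DiMSum error-weighted combination of wild-type-normalised replicate fold changes, kanamycin versus none.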

In the case of GACUAGCAAUAUUACGCUGA, the “self-splicing fitness (ln)” value is, setting by setting: (30 °C) -1.16 ± 0.14; (37 °C) -0.638 ± 0.14. As to GGACAGCAAUAUUACGGGCC, the “self-splicing fitness (ln)” value (37 °C) is -1.52 ± 0.29. Regarding CCAAAGCAAUAUUACGUUGA, the “self-splicing fitness (ln)” value by setting is: (30 °C) -3.42 ± 0.29; (37 °C) -0.401 ± 0.14. Take AAGCAGCAAUAUUACGCACC: the “self-splicing fitness (ln)” value is -0.735 ± 0.085 (30 °C) and 0.0945 ± 0.09 (37 °C). Turning to UAGCAGCAAUAUUACGAUUG, the “self-splicing fitness (ln)” value is -0.536 ± 0.12 (30 °C) and -0.509 ± 0.14 (37 °C). The like results for CCUCAGCAAUAUUACGAAGU were, in that order, -3.54 ± 0.17 and -1.88 ± 0.15. With AUAAAGCAAUAUUACGUGGC, the “self-splicing fitness (ln)” value reads like this: (30 °C) -3.27 ± 0.13; (37 °C) -2.69 ± 0.16. The like results for AUUGAGCAAUAUUACGCGGG were, in that order, -3.34 ± 0.36 and -2.25 ± 0.35. On to GCCGAGCAAUAUUACGUGGA, for which the “self-splicing fitness (ln)” value is, setting by setting: (30 °C) -1.68 ± 0.12; (37 °C) -1.76 ± 0.15.

For GCGGAGCAAUAUUACGCGCA, the “self-splicing fitness (ln)” value is -2.93 ± 0.3 (30 °C) and -0.701 ± 0.17 (37 °C). Regarding UUAUAGCAAUAUUACGGCUU, the “self-splicing fitness (ln)” value was -1.99 ± 0.17 (30 °C) and -0.583 ± 0.18 (37 °C). On to CCGAAGCAAUAUUACGUCAA, for which the “self-splicing fitness (ln)” value runs as follows: (30 °C) -3.82 ± 0.38; (37 °C) -2.35 ± 0.33. The like results for AUACAGCAAUAUUACGGAAA were, in that order, -3.24 ± 0.2 and -2.16 ± 0.17. The like results for AGUCAGCAAUAUUACGACGG were, in that order, -0.725 ± 0.067 and -0.096 ± 0.1.

Regarding AUAGAGCAAUAUUACGCGGA, the “self-splicing fitness (ln)” value is -1.35 ± 0.092 (30 °C) and -1.48 ± 0.11 (37 °C). The like results for ACGUAGCAAUAUUACGGCGG were, in that order, -1.65 ± 0.1 and -0.812 ± 0.11. GAGUAGCAAUAUUACGAGAC: the “self-splicing fitness (ln)” value (30 °C) is -3.25 ± 0.43 and the “self-splicing fitness (ln)” value (37 °C) was -2.95 ± 0.48. The like results for AGCGAGCAAUAUUACGGUUU were, in that order, -2.1 ± 0.18 and -0.574 ± 0.15. The like results for GCGAAGCAAUAUUACGACAA were, in that order, -2.21 ± 0.18 and -0.672 ± 0.12.

Take CCUGAGCAAUAUUACGGCCA: the “self-splicing fitness (ln)” value was -2.01 ± 0.34 (30 °C) and -2.05 ± 0.29 (37 °C). The like results for CAUCAGCAAUAUUACGUUAU were, in that order, -3.34 ± 0.12 and -2.02 ± 0.11. In the case of AAACAGCAAUAUUACGCCUU, the “self-splicing fitness (ln)” value (30 °C) was -1.66 ± 0.093 and the “self-splicing fitness (ln)” value (37 °C) was -0.238 ± 0.1. The like results for CAAAAGCAAUAUUACGCUGU were, in that order, -3.49 ± 0.25 and -1.73 ± 0.18. AGAAAGCAAUAUUACGGGUC: the “self-splicing fitness (ln)” value is, setting by setting: (30 °C) -3.05 ± 0.21; (37 °C) -3.35 ± 0.31.

As for UUGUAGCAAUAUUACGGUAA, the “self-splicing fitness (ln)” value is -1.2 ± 0.16 (30 °C) and -0.727 ± 0.13 (37 °C).

On to CGUGAGCAAUAUUACGUCGG, for which the “self-splicing fitness (ln)” value by setting is: (30 °C) -0.475 ± 0.11; (37 °C) -0.606 ± 0.12.

GGGCAGCAAUAUUACGGUUU: the “self-splicing fitness (ln)” value reads like this: (30 °C) -0.465 ± 0.065; (37 °C) -0.681 ± 0.071. Take UGAGAGCAAUAUUACGUAGG: the “self-splicing fitness (ln)” value is -2.48 ± 0.35 (30 °C) and -1.12 ± 0.41 (37 °C). ACCUAGCAAUAUUACGCUGG: the “self-splicing fitness (ln)” value reads like this: (30 °C) -4.07 ± 0.35; (37 °C) -2.53 ± 0.22. The like results for UAAGAGCAAUAUUACGCUAG were, in that order, -3.86 ± 0.26 and -1.94 ± 0.21. The like results for CGCGAGCAAUAUUACGGAUU were, in that order, -3.12 ± 0.17 and -2.51 ± 0.25. The like results for GAGUAGCAAUAUUACGUACG were, in that order, -2.67 ± 0.18 and 0.056 ± 0.13. For UAAGAGCAAUAUUACGUUUG, the “self-splicing fitness (ln)” value is, setting by setting: (30 °C) -2.33 ± 0.096; (37 °C) -1.07 ± 0.12. Consider ACGAAGCAAUAUUACGUUAG, for which the “self-splicing fitness (ln)” value is -3.22 ± 0.12 (30 °C) and -2.44 ± 0.16 (37 °C). As for GUCAAGCAAUAUUACGUUUG, the “self-splicing fitness (ln)” value (37 °C) is -3.38 ± 0.2. For UGGUAGCAAUAUUACGCAAU, the “self-splicing fitness (ln)” value is -2.59 ± 0.24 (30 °C) and -2.56 ± 0.33 (37 °C).

Turning to AGCCAGCAAUAUUACGCACU, the “self-splicing fitness (ln)” value by setting is: (30 °C) -0.425 ± 0.094; (37 °C) -0.259 ± 0.12.

For the sequence CCAGAGCAAUAUUACGACAC, the “self-splicing fitness (ln)” value (30 °C) is -1.29 ± 0.22. For CAUAAGCAAUAUUACGUCGA, the “self-splicing fitness (ln)” value is, setting by setting: (30 °C) -3.41 ± 0.26; (37 °C) -2.86 ± 0.17.

For UGGCAGCAAUAUUACGACGG, the “self-splicing fitness (ln)” value is, setting by setting: (30 °C) -0.817 ± 0.15; (37 °C) 0.837 ± 0.17.

As to GAUAAGCAAUAUUACGCGGU, the “self-splicing fitness (ln)” value runs as follows: (30 °C) -3.19 ± 0.25; (37 °C) -1.01 ± 0.19. In the case of UAGUAGCAAUAUUACGAUUA, the “self-splicing fitness (ln)” value runs as follows: (30 °C) -0.381 ± 0.099; (37 °C) 0.0431 ± 0.098. The like results for AUUUAGCAAUAUUACGCAUG were, in that order, -1.05 ± 0.12 and -0.777 ± 0.18. The like results for AAGAAGCAAUAUUACGAGUA were, in that order, -0.78 ± 0.26 and -1.44 ± 0.21. For the sequence GUGCAGCAAUAUUACGCUCG, the “self-splicing fitness (ln)” value runs as follows: (30 °C) -0.5 ± 0.091; (37 °C) -0.883 ± 0.13. The like results for CACAAGCAAUAUUACGGGUG were, in that order, -3.99 ± 0.1 and -2.94 ± 0.11.

UGGCAGCAAUAUUACGACUA: the “self-splicing fitness (ln)” value runs as follows: (30 °C) 0.138 ± 0.07; (37 °C) 0.38 ± 0.1. The like results for UUGGAGCAAUAUUACGCAGG were, in that order, -2.96 ± 0.28 and -1.99 ± 0.33. The like results for GUCAAGCAAUAUUACGUGGA were, in that order, -2.86 ± 0.17 and -1.58 ± 0.12. As to GUCGAGCAAUAUUACGAGCA, the “self-splicing fitness (ln)” value (30 °C) was -1.76 ± 0.3.

Consider CCCGAGCAAUAUUACGCGUC, for which the “self-splicing fitness (ln)” value is, setting by setting: (30 °C) -5.24 ± 0.32; (37 °C) -2.91 ± 0.23. The like results for GCUUAGCAAUAUUACGCAUG were, in that order, -2.06 ± 0.27 and -0.0774 ± 0.2.

In the case of AUAAAGCAAUAUUACGUCGG, the “self-splicing fitness (ln)” value by setting is: (30 °C) -1.28 ± 0.075; (37 °C) -0.774 ± 0.089. Consider AGUGAGCAAUAUUACGUACU, for which the “self-splicing fitness (ln)” value is -1.71 ± 0.13 (30 °C) and -1.15 ± 0.17 (37 °C).

With CGUCAGCAAUAUUACGGAGC, the “self-splicing fitness (ln)” value by setting is: (30 °C) -3.85 ± 0.42; (37 °C) -1.95 ± 0.26. As for GUUAAGCAAUAUUACGGGCG, the “self-splicing fitness (ln)” value is -1.44 ± 0.1 (30 °C) and -0.388 ± 0.11 (37 °C).

Turning to AAUCAGCAAUAUUACGAGCA, the “self-splicing fitness (ln)” value by setting is: (30 °C) -0.936 ± 0.14; (37 °C) -0.0653 ± 0.12. The like results for CAGCAGCAAUAUUACGCGCC were, in that order, -1.71 ± 0.25 and -0.362 ± 0.22. AAGUAGCAAUAUUACGACGA: the “self-splicing fitness (ln)” value is, setting by setting: (30 °C) 0.0522 ± 0.098; (37 °C) 0.0374 ± 0.11.

With AAUUAGCAAUAUUACGAUGG, the “self-splicing fitness (ln)” value is -3.31 ± 0.24 (30 °C) and -0.247 ± 0.17 (37 °C). As to CGGGAGCAAUAUUACGAUAA, the “self-splicing fitness (ln)” value runs as follows: (30 °C) -3.16 ± 0.25; (37 °C) -2.57 ± 0.39. With AACCAGCAAUAUUACGACAA, the “self-splicing fitness (ln)” value is -1.14 ± 0.12 (30 °C) and -0.155 ± 0.12 (37 °C). As to CCAGAGCAAUAUUACGUUGC, the “self-splicing fitness (ln)” value (30 °C) is -4.54 ± 0.37 and the “self-splicing fitness (ln)” value (37 °C) was -2.11 ± 0.18. The like results for ACGCAGCAAUAUUACGGUAA were, in that order, -2.69 ± 0.12 and -1.02 ± 0.082. The like results for GUAAAGCAAUAUUACGGAUA were, in that order, -2.72 ± 0.16 and -0.67 ± 0.12. On to UCUUAGCAAUAUUACGACUA, for which the “self-splicing fitness (ln)” value (37 °C) is -2.26 ± 0.45. With UUAGAGCAAUAUUACGGUGG, the “self-splicing fitness (ln)” value by setting is: (30 °C) -1.95 ± 0.12; (37 °C) -0.679 ± 0.13. As to UAUAAGCAAUAUUACGGGCC, the “self-splicing fitness (ln)” value (30 °C) is -2.99 ± 0.31.

For UAAAAGCAAUAUUACGAAUC, the “self-splicing fitness (ln)” value runs as follows: (30 °C) -4.16 ± 0.42; (37 °C) -2.13 ± 0.21. On to GAGCAGCAAUAUUACGCCAA, for which the “self-splicing fitness (ln)” value was -1.55 ± 0.29 (30 °C) and -1.43 ± 0.31 (37 °C). On to UAGUAGCAAUAUUACGACCG, for which the “self-splicing fitness (ln)” value runs as follows: (30 °C) -0.133 ± 0.16; (37 °C) 0.109 ± 0.16. With GCAGAGCAAUAUUACGACGG, the “self-splicing fitness (ln)” value was -2.22 ± 0.2 (30 °C) and -1.21 ± 0.18 (37 °C). For the sequence GCAUAGCAAUAUUACGCCAG, the “self-splicing fitness (ln)” value reads like this: (30 °C) -2.88 ± 0.42; (37 °C) -2.94 ± 0.48. The like results for CCUAAGCAAUAUUACGAAAU were, in that order, -2.79 ± 0.18 and -2.77 ± 0.29. Take UAACAGCAAUAUUACGAGUC: the “self-splicing fitness (ln)” value was -3.74 ± 0.23 (30 °C) and -2.05 ± 0.22 (37 °C).

In the case of ACGAAGCAAUAUUACGGUUA, the “self-splicing fitness (ln)” value is -1.58 ± 0.095 (30 °C) and -0.445 ± 0.079 (37 °C). On to GUCGAGCAAUAUUACGGAAG, for which the “self-splicing fitness (ln)” value is -3.26 ± 0.26 (30 °C) and -2.35 ± 0.28 (37 °C).
